According to patent US20050049402A1 (Amgen, published 2005):
Changes are numbered by the printed parent chain. Blank lines part the entries; values can stand above or below the binder they belong to.

Key:
[1] = molecular target: T1, human TNFα (Tumor Necrosis Factor-alpha), soluble (human, UniProt P01375 77-233); assay: KinExA, TNFα counted as three monomers
T1 construct: Recombinant (R&D 210-TA/CF) in screens; biotinylated in the limited antigen assay; also called hTNFα; H-TNFα
Protocol: (§1) The kinetic measurements of the anti-TNFα antibodies were evaluated using KinExA® and BIACORE® technologies. The KinExA® method involves solution-based determination of formal affinity measurements at equilibrium. To measure the binding kinetics of each human anti-TNFα antibody, two experiments in replicates of three were performed. In both experiments a known concentration of antigen was titrated and a different antibody concentration was added to each antigen titration and allowed to reach binding equilibrium. […] The results were analyzed by dual curve analysis. […] In addition, to negate the possibility of avidity effects, Fab fragments were generated by papain cleavage and the kinetic analysis was repeated (see Table 24).

[2] = molecular target: T1, human TNFα (Tumor Necrosis …); assay: KinExA, TNFα counted as one trimer; KinExA, one trimer (52.5 kDa); lower bound of the Kd fit
Protocol: as §1

[3] = molecular target: T1, human TNFα (Tumor Necrosis …); assay: KinExA, TNFα counted as one trimer; KinExA, one trimer (52.5 kDa); upper bound of the Kd fit
Protocol: as §1

[4] = molecular target: T1, human TNFα (Tumor Necrosis …); assay: KinExA, TNFα counted as three monomers; KinExA, three monomers (17.5 kDa); upper bound of the Kd fit
Protocol: as §1

[5] = molecular target: T1, human TNFα (Tumor Necrosis …); assay: KinExA, TNFα counted as one trimer; KinExA in solution; TNFα site concentration as one trimer (52.5 kDa)
Protocol: as §1

[6] = molecular target: T1, human TNFα (Tumor Necrosis …); assay: KinExA, TNFα counted as three monomers; KinExA in solution; TNFα site concentration as three monomers (17.5 kDa)
Protocol: as §1

[7] = molecular target: T1, human TNFα (Tumor Necrosis …); assay: cell-based or functional assay
[8] = molecular target: T1, human TNFα (Tumor Necrosis …); assay: cell-based or functional assay; remark: listed apart in the source
[9] = molecular target: transmembrane mutant TNFα expressed on the surface of CHO cells (UniProt P01375 1-233); assay: cell-based or functional assay
[10] = molecular target: T1, human TNFα (Tumor Necrosis …); assay: cell-based or functional assay; remark: listed apart in the source
[11] = molecular target: human TNFα R31Q, Q27E mutant (human, UniProt P01375 77-233); assay: ELISA on chimeric/mutant TNFα
Text: (§2) In order to define the binding site for different antibodies, a number of residues of hTNFα were mutated using site directed mutagenesis. A panel of antibodies was screened for binding by an ELISA assay. […] Histidine at position 73 was deleted, an example is illustrated in Table 19.

human TNFα R131Q mutant = human TNFα R131Q mutant (human, UniProt P01375 77-233); assay: ELISA on chimeric/mutant TNFα
Text: as §2

human TNFα R31Q mutant = human TNFα R31Q mutant (human, UniProt P01375 77-233); assay: ELISA on chimeric/mutant TNFα
Text: as §2

mouse TNFα = molecular target: T2, mouse TNFα (mouse, UniProt P06804 80-235); assay: binding to chimeric TNF proteins
T2 construct: also called M TNFα; murine TNF
T2 sequence: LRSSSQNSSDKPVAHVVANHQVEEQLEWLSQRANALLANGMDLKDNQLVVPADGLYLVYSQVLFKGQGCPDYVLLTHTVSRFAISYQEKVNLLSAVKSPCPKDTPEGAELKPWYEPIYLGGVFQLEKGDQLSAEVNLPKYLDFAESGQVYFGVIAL

[12] = molecular target: T1, human TNFα (Tumor Necrosis …); assay: KinExA, TNFα counted as one trimer
Protocol: as §1

human GST-TNFα = molecular target: T3, human GST-TNFα (human, UniProt P01375 77-233); assay: ELISA, plate coated with 0.5 µg/ml human GST-TNFα, HRP goat anti-human IgG detection
T3 construct: also called E. coli expressed soluble human TNF; not shown: GST fusion partner
Protocol: (§3) Anti-TNFα antibodies were also tested for their ability to bind to soluble recombinant TNFα. Human and monkey (cynomolgous macaque) TNFα were expressed in E. coli as fusion proteins with GST. Binding was assessed by ELISA. […] Bound antibody was detected using an HRP-conjugated goat anti-human IgG antibody.

[13] = molecular target: T4, monkey (cynomolgous macaque) GST-TNFα (cynomolgous macaque, UniProt P79337 77-233); assay: ELISA, plate coated with 2 µg/ml monkey (cynomolgus macaque) GST-TNFα, HRP goat anti-human IgG detection
T4 construct: also called E. coli expressed soluble cynomolgous macaque monkey TNF; monkey TNFα; not shown: GST fusion partner
Protocol: as §3

[14] = molecular target: T1, human TNFα (Tumor Necrosis …); assay: cell-based or functional assay; remark: listed apart in the source
[15] = molecular target: T5, H/M BglI chimeric TNFα (human 1-36, murine 37-157) (human; mouse, UniProt P06804 81-235); assay: ELISA on chimeric/mutant TNFα
T5 construct: Murine range is printed as 37-157 in human-aligned numbering; also called H/MBgl1; Hu/MBgl1
T5 chain: T2 sequence with L1V, Q6R, N7T, S8P, H20P, V22A, E24G, E27Q, S30N, Q31R
Text: as §2

[16] = molecular target: T6, H/M PvuII chimeric TNFα (human 1-125, murine 126-157) (human; mouse); assay: ELISA on chimeric/mutant TNFα
T6 construct: also called Hu/M PVu11
T6 chain: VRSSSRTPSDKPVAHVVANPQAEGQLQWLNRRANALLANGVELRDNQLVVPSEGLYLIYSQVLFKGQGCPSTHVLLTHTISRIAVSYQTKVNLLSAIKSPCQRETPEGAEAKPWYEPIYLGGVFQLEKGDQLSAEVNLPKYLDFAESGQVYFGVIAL
Text: as §2

[17] = molecular target: T7, H/M HincII chimeric TNFα (human 1-91, murine 92-157) (human; mouse); assay: ELISA on chimeric/mutant TNFα
T7 construct: Murine range printed 92-157 (human-aligned); also called Hu/M Hin C l1
T7 chain: T6 chain with I97V, Q102P, R103K, E104D, A111L
Text: as §2

[18] = molecular target: T1, human TNFα (Tumor Necrosis …); assay: KinExA, unknown antigen concentration method
Protocol: as §1

[19] = molecular target: T1, human TNFα (Tumor Necrosis …); assay: KinExA, Fab from papain cleavage
Protocol: as §1

[20] = molecular target: T5, H/M BglI chimeric TNFα (human 1-36, …); assay: ELISA on expressed TNFα constructs
[21] = molecular target: T6, H/M PvuII chimeric TNFα (human 1-125, …); assay: ELISA on expressed TNFα constructs
[22] = molecular target: T7, H/M HincII chimeric TNFα (human 1-91, …); assay: ELISA on expressed TNFα constructs

transmembrane mutant TNFα expressed on the surface of CHO cells, sequence (P01375 whole entry, change not shown, form in doubt): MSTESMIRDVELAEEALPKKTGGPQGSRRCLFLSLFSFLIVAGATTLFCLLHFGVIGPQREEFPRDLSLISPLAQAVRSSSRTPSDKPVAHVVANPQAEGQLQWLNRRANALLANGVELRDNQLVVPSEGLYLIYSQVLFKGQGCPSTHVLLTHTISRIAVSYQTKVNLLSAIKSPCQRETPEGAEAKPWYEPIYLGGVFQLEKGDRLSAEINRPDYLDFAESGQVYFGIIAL
human TNFα R31Q mutant, sequence (P01375 77-233 R107Q): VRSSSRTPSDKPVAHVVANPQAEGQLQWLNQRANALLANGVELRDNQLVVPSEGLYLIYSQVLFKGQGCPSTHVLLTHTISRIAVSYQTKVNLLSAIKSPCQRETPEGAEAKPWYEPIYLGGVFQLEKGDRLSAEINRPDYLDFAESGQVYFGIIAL

B1: 3.2 (hybridoma, IgG2) (antibody, V domains shown)
VH: EVQLVQSGAEVKKPGESLKISCKTSEYSFTSYWIGWVRQMPGKGLEWMGIIYLGDSDTRYSPSFQGQVTISADKSISTAYLQWSSLKASDTAMYYCARSNWGLDYWGQGTLVTVSS
VL: QSVLTQPPSVSGAPGQRVTISCTGSSSNIGAGYDVHWYQQFPGTAPKLLIQGNSNRPSGVPDRFSGSKSGTSASLAITGLQAEDEADYYCQSYDSSLSGSVFGGGTKLTVL
notes: Hybridoma derived human IgG2, lambda light chain (V1-13/JL3); also called 3.2 Ab; 3.2.1
- Kd (M) Low [1]: 7.3e-12 M
- Kd (M) Low [2]: 2.43e-12 M
- Kd (M) High [3]: 7.6e-12 M
- Kd (M) High [4]: 2.3e-11 M
- Kd [5]: 4.77 pM
- Kd [6]: 14.3 pM

- ADCC (%) [9]: 10%
- CDC (%) [9]: 17%
- binding result [11]: binds
- binding result (human TNFα R131Q mutant): binds
- binding result (human TNFα R31Q mutant): binds
- binding result (mouse TNFα): no binding
- EC50 (read off the curve) (human GST-TNFα): ~3 ng/mL
- binding result [13]: no binding (tested: 100 ng/ml)
B2: 263 (antibody, human IgG1, V domains shown)
VH: EVQLVESGGGLIQPGGSLRLSCAASGFTVSRNYMSWVRQAPGKGLEWVSVIYSGDRTYYADSVKGRFTISRDNSKNTLYLQMNSLRAEDTAVYYCARGEGGFDYWGQGTLVTVSS
VL: EIVMTQSPATLSVSPGERATLSCRASQSVSSNLAWYQQKPGQAPRLLIHGASIRATGLPARFSGSGSGTEFTLTISSLQSEDFAVYYCQQYNYWWTFGQGTKVEIK
notes: XENOMAX derived, recombinant human IgG1 kappa; also called SC263
- IC50 1 hr Pre-incubation, TNF induced apoptosis in MCF-7 cells [7]: 59.5 pM
- IC50 18 hr Pre-incubation, TNF induced apoptosis in MCF-7 cells [7]: 37 pM
- Whole Blood IC50, TNFα-induced IL-8 production [8]: 524 pM
- In vivo Potency (IC50), ALT, hTNFα/D-GalN hepatic injury in mice [10]: 48000 pM
- In vivo Potency (IC50), human TNFα-induced IL-6 in mice [10]: 35000 pM
- Kd [12]: 3.73 pM
- Kd [1]: 11.2 pM

- binding result [11]: binds
- binding result (human TNFα R131Q mutant): binds
- binding result [15]: binds
- binding result [16]: binds
- binding result [17]: binds
- binding result (human TNFα R31Q mutant): binds
B3: Rabbit R014 (AB-TNFα-R014) (antibody, rabbit IgG1, V domains shown)
VH: QSLEESGGRLVTPGTPLTLTCTVSGIDLSSNTMGWFRRAPGKGLEWIGIIISSGTTYYASWVKGRFTISKTSTTVDLKITRPTTEDTATYFCARGWYEFNLWGPGTLVTVSS
VL: DVVMTQTPASVEAAVGGTVTIKCQASENIDILLAWYQQKVGQPPKLLIYRASKLASGAPSRFSGSGSGTEFTLTISDLECGDAATYYCQSNVGSTARSSYGNAFGGGTEVVVK
notes: Fully rabbit antibody, rabbit IgG1 heavy and kappa constant regions; cloned from well 7A4; also called RO14; Rabbit 014
- Average IC50, TNF induced apoptosis on MCF-7 cells, 1 hour pre-incubation [14]: 14.2 pM
- Kd [18]: 0.787 pM
- Kd (M) High [18]: 2.47e-12 M
- Kd (M) Low [18]: 1.56e-13 M

B4: Rabbit R014 Fab (Fab, V domains shown)
VH: B3 VH
VL: B3 VL
notes: Fab made by papain cleavage of R014
- Kd [19]: 0.638 pM
- Kd (M) High [19]: 1.94e-10 M
- Kd (M) Low [19]: 2.09e-15 M

- binding result (human TNFα R131Q mutant): binds
- binding result [20]: binds
- binding result [21]: binds
- binding result [22]: binds
B5: 4.17 (hybridoma, IgG2) (antibody, V domains shown)
VH: QVQLVESGGGVVQPGRSLRLSCTTSGFTFSNYGMHWVRQAPGKGLEWVAVIWYDGSIKYYVDSVKGRFTISRDNSKNTLYLQMNSLRAEDTAVYYCAREKDCGGDCYSHYGMDVWGQGTTVTVSS
VL: DIQMTQSPSSLSASVGDRVTITCRASQGIRNDLGWYQQKPGKAPKRLIYAASSLQSGVPSRFSGSGSGTEFTLTISSLQPEDFATYYCLQHMSLPLTFGGGTKVEIK
notes: Hybridoma derived human IgG2 kappa
